Measurements from the supplement of paper PMC9112550, “Optimization of the antimicrobial peptide Bac7 by deep mutational scanning” (BMC Biology, 2022).

system: Escherichia coli TOP10; assay: shrunken log2 fold change of peptide-encoding DNA abundance (4.5 h post-induction vs induction); higher = less antimicrobial activity (less host growth inhibition); conditions: time post-induction: 4.5 h; library: site-saturation at positions 5, 18, 19, 20
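Also: peptides expressed intracellularly from a pBAD plasmid library in pooled LB shake-flask culture, induced with 0.3% L-arabinose, DNA abundance read by NGS, three biological replicates, DESeq2 with apeglm shrinkage.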

| Sequence | shrunken log2 fold change |
| --- | --- |
| RRIRWRPPRLPRPRPRPYASPRP | -0.121 |
| RRIRWRPPRLPRPRPRPKTDPRP | 0.204 |
| RRIRPRPPRLPRPRPRPILCPRP | 0.179 |
| RRIRTRPPRLPRPRPRPRMHPRP | 0.0254 |
| RRIRPRPPRLPRPRPRPDDEPRP | 0.331 |
| RRIRLRPPRLPRPRPRPIHYPRP | -0.186 |
| RRIRRRPPRLPRPRPRPYKYPRP | -0.415 |
| RRIRRRPPRLPRPRPRPFAVPRP | 0.0874 |
| RRIRTRPPRLPRPRPRPRFQPRP | 0.177 |
| RRIRWRPPRLPRPRPRPEGHPRP | 0.792 |
| RRIRDRPPRLPRPRPRPMVNPRP | -0.0813 |
| RRIRDRPPRLPRPRPRPVAIPRP | 0.711 |
| RRIRQRPPRLPRPRPRPTRPPRP | 1.05 |
| RRIRPRPPRLPRPRPRPHCWPRP | 0.151 |
| RRIRQRPPRLPRPRPRPYPFPRP | -0.035 |
| RRIRRRPPRLPRPRPRPGIPPRP | 0.322 |
| RRIRARPPRLPRPRPRPYRFPRP | 0.0859 |
| RRIRCRPPRLPRPRPRPGTEPRP | 0.078 |
| RRIRHRPPRLPRPRPRPEYYPRP | -0.241 |
| RRIRFRPPRLPRPRPRPVETPRP | -0.0497 |
| RRIRARPPRLPRPRPRPYDPPRP | -0.406 |
| RRIRHRPPRLPRPRPRPTFAPRP | 3.26 |
| RRIRDRPPRLPRPRPRPRYCPRP | -0.351 |
| RRIRNRPPRLPRPRPRPLTMPRP | -0.429 |
| RRIRRRPPRLPRPRPRPTTWPRP | 0.28 |

| Sequence | shrunken log2 fold change |
| --- | --- |
| RRIRGRPPRLPRPRPRPGVMPRP | 1.05 |
| RRIRSRPPRLPRPRPRPQHGPRP | -0.397 |
| RRIRHRPPRLPRPRPRPYFKPRP | -1.03 |
| RRIRIRPPRLPRPRPRPFLEPRP | -1.1 |
| RRIRYRPPRLPRPRPRPSISPRP | -0.601 |
| RRIRGRPPRLPRPRPRPSEPPRP | 0.413 |
| RRIRFRPPRLPRPRPRPWIEPRP | -0.224 |
| RRIRQRPPRLPRPRPRPYWFPRP | 0.00499 |
| RRIRSRPPRLPRPRPRPGTTPRP | 0.132 |
| RRIRGRPPRLPRPRPRPCFEPRP | 0.629 |
| RRIRHRPPRLPRPRPRPTMQPRP | -0.0838 |
| RRIRMRPPRLPRPRPRPGVSPRP | 0.461 |
| RRIRWRPPRLPRPRPRPYYPPRP | -1.09 |
| RRIRQRPPRLPRPRPRPMAPPRP | 0.0505 |
| RRIRTRPPRLPRPRPRPILNPRP | -0.403 |
| RRIRHRPPRLPRPRPRPMRFPRP | -0.00752 |
| RRIRERPPRLPRPRPRPWNHPRP | -1.48 |
| RRIRGRPPRLPRPRPRPLENPRP | 0.766 |
| RRIRTRPPRLPRPRPRPHRSPRP | 0.0963 |
| RRIRLRPPRLPRPRPRPVWMPRP | 0.372 |
| RRIRMRPPRLPRPRPRPHKWPRP | 0.216 |
| RRIRTRPPRLPRPRPRPMDCPRP | -0.0416 |
| RRIRRRPPRLPRPRPRPRDMPRP | 0.186 |
| RRIRHRPPRLPRPRPRPVFFPRP | -0.0644 |
| RRIRLRPPRLPRPRPRPTWNPRP | -0.114 |

| Sequence | shrunken log2 fold change |
| --- | --- |
| RRIRNRPPRLPRPRPRPTQWPRP | 0.425 |
| RRIRFRPPRLPRPRPRPDHKPRP | -0.406 |
| RRIRTRPPRLPRPRPRPKKGPRP | -0.0611 |
| RRIRIRPPRLPRPRPRPIRPPRP | -0.277 |
| RRIRSRPPRLPRPRPRPMHKPRP | -0.112 |
| RRIRIRPPRLPRPRPRPPEWPRP | 0.0764 |
| RRIRIRPPRLPRPRPRPVHHPRP | -0.732 |
| RRIRPRPPRLPRPRPRPQHFPRP | -0.297 |
| RRIRYRPPRLPRPRPRPHCYPRP | -0.426 |
| RRIRWRPPRLPRPRPRPVKKPRP | 0.29 |
| RRIRCRPPRLPRPRPRPMKHPRP | -0.486 |
| RRIRRRPPRLPRPRPRPWLKPRP | 0.127 |
| RRIRDRPPRLPRPRPRPQEFPRP | -0.0529 |
| RRIRPRPPRLPRPRPRPPQYPRP | 0.189 |
| RRIRGRPPRLPRPRPRPAFKPRP | 0.177 |
| RRIRWRPPRLPRPRPRPAEQPRP | -0.00651 |
| RRIRERPPRLPRPRPRPACHPRP | -0.0945 |
| RRIRMRPPRLPRPRPRPSPNPRP | 0.0416 |
| RRIRDRPPRLPRPRPRPCNGPRP | -0.143 |
| RRIRSRPPRLPRPRPRPVDEPRP | -0.216 |
| RRIRDRPPRLPRPRPRPHSKPRP | -0.456 |
| RRIRMRPPRLPRPRPRPGHTPRP | 0.488 |
| RRIRVRPPRLPRPRPRPPGPPRP | 0.533 |
| RRIRCRPPRLPRPRPRPCPHPRP | -0.235 |
| RRIRHRPPRLPRPRPRPFMVPRP | -0.43 |

| Sequence | shrunken log2 fold change |
| --- | --- |
| RRIRWRPPRLPRPRPRPTPPPRP | 0.639 |
| RRIRGRPPRLPRPRPRPEHFPRP | 0.00955 |
| RRIRLRPPRLPRPRPRPVVVPRP | 1.45 |
| RRIRARPPRLPRPRPRPKQVPRP | 0.0289 |
| RRIRWRPPRLPRPRPRPDHCPRP | -0.00992 |
| RRIRMRPPRLPRPRPRPFLEPRP | -0.088 |
| RRIRPRPPRLPRPRPRPYTHPRP | -1.35 |
| RRIRMRPPRLPRPRPRPHRDPRP | 0.169 |
| RRIRKRPPRLPRPRPRPPACPRP | 0.197 |
| RRIRKRPPRLPRPRPRPFEDPRP | -0.136 |
| RRIRHRPPRLPRPRPRPCRQPRP | -0.035 |
| RRIRVRPPRLPRPRPRPHDFPRP | -0.00674 |
| RRIRERPPRLPRPRPRPKDGPRP | 0.0062 |
| RRIRTRPPRLPRPRPRPRQWPRP | -0.054 |
| RRIRYRPPRLPRPRPRPLSSPRP | -0.214 |
| RRIRCRPPRLPRPRPRPQSEPRP | -0.398 |
| RRIRRRPPRLPRPRPRPNWEPRP | -0.0176 |
| RRIRHRPPRLPRPRPRPEWYPRP | 0.0294 |
| RRIRRRPPRLPRPRPRPPVIPRP | -0.139 |
| RRIRARPPRLPRPRPRPKRTPRP | 0.553 |
| RRIRPRPPRLPRPRPRPYPWPRP | -0.345 |
| RRIRIRPPRLPRPRPRPCRVPRP | -1.39 |
| RRIRQRPPRLPRPRPRPVTGPRP | 0.0279 |
| RRIRVRPPRLPRPRPRPDACPRP | -0.11 |
| RRIRGRPPRLPRPRPRPLLNPRP | 0.76 |

| Sequence | shrunken log2 fold change |
| --- | --- |
| RRIRSRPPRLPRPRPRPSRPPRP | 1.28 |
| RRIRTRPPRLPRPRPRPQCEPRP | -0.0143 |
| RRIRLRPPRLPRPRPRPGGYPRP | -0.192 |
| RRIRIRPPRLPRPRPRPKMDPRP | 0.0209 |
| RRIRWRPPRLPRPRPRPHWMPRP | 0.289 |
| RRIRCRPPRLPRPRPRPNDRPRP | -0.299 |
| RRIRKRPPRLPRPRPRPKAPPRP | 0.62 |
| RRIRFRPPRLPRPRPRPQNDPRP | -0.296 |
| RRIRIRPPRLPRPRPRPCWLPRP | -0.196 |
| RRIRERPPRLPRPRPRPPRMPRP | 0.027 |
| RRIRLRPPRLPRPRPRPNNPPRP | -0.157 |
| RRIRDRPPRLPRPRPRPSPMPRP | 0.136 |
| RRIRYRPPRLPRPRPRPGIHPRP | -0.467 |
| RRIRERPPRLPRPRPRPRNTPRP | -0.346 |
| RRIRRRPPRLPRPRPRPWAYPRP | -0.0717 |
| RRIRVRPPRLPRPRPRPAPKPRP | 0.438 |
| RRIRQRPPRLPRPRPRPFAAPRP | 0.336 |
| RRIRYRPPRLPRPRPRPAQHPRP | -0.515 |
| RRIRRRPPRLPRPRPRPCYKPRP | -0.202 |
| RRIRGRPPRLPRPRPRPVDLPRP | 0.687 |
| RRIRYRPPRLPRPRPRPYRWPRP | -0.175 |
| RRIRDRPPRLPRPRPRPQAAPRP | 0.0147 |
| RRIRTRPPRLPRPRPRPRIGPRP | 0.116 |
| RRIRHRPPRLPRPRPRPSQVPRP | 0.176 |
| RRIRQRPPRLPRPRPRPKRWPRP | 0.0413 |

| Sequence | shrunken log2 fold change |
| --- | --- |
| RRIRERPPRLPRPRPRPQAKPRP | 0.162 |
| RRIRSRPPRLPRPRPRPTNFPRP | 0.0979 |
| RRIRFRPPRLPRPRPRPGGEPRP | 0.271 |
| RRIRIRPPRLPRPRPRPMCCPRP | -0.212 |
| RRIRRRPPRLPRPRPRPQDYPRP | -0.268 |
| RRIRWRPPRLPRPRPRPRSKPRP | 0.118 |
| RRIRVRPPRLPRPRPRPEHKPRP | -0.0815 |
| RRIRGRPPRLPRPRPRPQRLPRP | 0.329 |
| RRIRPRPPRLPRPRPRPEFEPRP | -0.0475 |
| RRIRMRPPRLPRPRPRPVTEPRP | -0.0547 |
| RRIRVRPPRLPRPRPRPISFPRP | 0.0233 |
| RRIRARPPRLPRPRPRPDEEPRP | 0.901 |
| RRIRDRPPRLPRPRPRPAVHPRP | 0.16 |
| RRIRPRPPRLPRPRPRPHNHPRP | -0.609 |
| RRIRLRPPRLPRPRPRPHDNPRP | -0.526 |
| RRIRKRPPRLPRPRPRPHDQPRP | 0.0273 |
| RRIRYRPPRLPRPRPRPMHHPRP | -0.596 |
| RRIRIRPPRLPRPRPRPGAWPRP | 0.215 |
| RRIRYRPPRLPRPRPRPLLNPRP | -0.19 |
| RRIRMRPPRLPRPRPRPIVAPRP | 0.156 |
| RRIRARPPRLPRPRPRPIYYPRP | -0.182 |
| RRIRGRPPRLPRPRPRPFVWPRP | 0.278 |
| RRIRGRPPRLPRPRPRPSMIPRP | 0.267 |
| RRIRTRPPRLPRPRPRPSLWPRP | 0.277 |
| RRIRRRPPRLPRPRPRPNNPPRP | 0.0225 |
